Data from patent US11053304 (CENTIVAX, dated 2021).

B1: COVID19_P07_B08 (scFv, V domains shown)
VH: EVQLVESGGGLVQPGGSLRLSCAASGFTFDDYAMHWVRQAPGKGLEWVSVISGSGRNTYYADSVKGRFTISRDNSKNTLYLQMNSLRAEDTAVYYCVTNMDNSRDYFPHYFHDMDVWGQGTLVTVSS
VL: not shown
B2: COVID19_P07_F05 (scFv, V domains shown)
VH: EVQLVESGGGLVQPGGSLRLSCAASGFTFSNYAMHWVRQAPGKGLEWVSGISSGGSGTHYADSVKGRFTISRDNSKNTLYLQMNSLRAEDTAVYYCVTNMDNSRDYFPHYFHDMDVWGQGTLVTVSS
VL: not shown
B3: COVID19_P08_F08 (scFv, V domains shown)
VH: EVQLVESGGGLVQPGGSLRLSCAASGFTFTSYGMHWVRQAPGKGLEWVSAISGSGGTTYYADSVKGRFTISRDNSKNTLYLQMNSLRAEDTAVYYCVTNMDNSRDYFPHYFHDMDVWGQGTLVTVSS
VL: not shown
B4: COVID19_P07_H05 (scFv, V domains shown)
VH: EVQLVESGGGLVQPGGSLRLSCAASGFTFSSYGMHWIRQAPGKGLEWVSVITGDGRNKFYADSVKGRFTISRDNSKNTLYLQMNSLRAEDTAVYYCVTNMDNSRDYFPHYFHDMDVWGQGTLVTVSS
VL: not shown
B5: COVID19_P07_E03 (scFv, V domains shown)
VH: EVQLVESGGGLVQPGGSLRLSCAASGFIFSSFGMHWVRQAPGKGLEWVSAISDSGDATQYADSVKGRFTISRDNSKNTLYLQMNSLRAEDTAVYYCVTNMDNSRDYFPHYFHDMDVWGQGTLVTVSS
VL: not shown
B6: COVID19_P08_A10 (scFv, V domains shown)
VH: EVQLVESGGGLVQPGGSLRLSCAASGFIFNDYGMHWVRQAPGKGLEWVSAISGSGGNTYYADSVKGRFTISRDNSKNTLYLQMNSLRAEDTAVYYCVTNMDNSRDYFPHYFHDMDVWGQGTLVTVSS
VL: not shown
B7: COVID19_P07_H06 (scFv, V domains shown)
VH: EVQLVESGGGLVQPGGSLRLSCAASGFTFSSYGMHWIRQAPGKGLEWVSAVSASGDRTHYADSVKGRFTISRDNSKNTLYLQMNSLRAEDTAVYYCVTNLDNSRDYFPHYFHDMDVWGQGTLVTVSS
VL: not shown
B8: COVID19_P19_D02 (scFv, V domains shown)
VH: EVQLVESGGGLVQPGGSLRLSCAASGFTFSSYGMHWVRQAPGKGLEWVAAISGSGGSTHYADSVKGRFTISRDNSKNTLYLQMNSLRAEDTAVYYCVTNMDNSRDYFPHYFHDMDVWGQGTLVTVSS
VL: not shown
B9: COVID19_P07_D10 (scFv, V domains shown)
VH: EVQLVESGGGLVQPGGSLRLSCAASGFTFDDYAMHWVRQAPGKGLEWVSAVSTTGGSTYYADSVKGRFTISRDNSKNTLYLQMNSLRAEDTAVYYCVTNMDNSRDYFPHYFHDMDVWGQGTLVTVSS
VL: not shown
B10: COVID19_P08_C02 (scFv, V domains shown)
VH: EVQLVESGGGLVQPGGSLRLSCAASGFTFSSYAMHWVRQAPGKGLEWVSGVSASGGGPYYADSVKGRFTISRDNSKNTLYLQMNSLRAEDTAVYYCVTNMDNSRDYFPHYFHDMDVWGQGTLVTVSS
VL: not shown
B11: COVID19_P20_F04 (scFv, V domains shown)
VH: EVQLVESGGGLVQPGGSLRLSCAASGFAFSSYALHWVRQAPGKGLEWVSAISGSGGDTYYADSVKGRFTISRDNSKNTLYLQMNSLRAEDTAVYYCVTNMDNSRDYFPHYFHDMDVWGQGTLVTVSS
VL: DIVMTQSPLSLPVTPGEPASISCRSSQSLLHRNGYNYVDWYLQKPGQSPQLLIYLGSNRASGVPDRFSGSGSGTDFTLRISRVEAEDVGVYYCMQARQTPLTFGGGTKVEIKR
B12: COVID19_P08_D11 (scFv, V domains shown)
VH: EVQLVESGGGLVQPGGSLRLSCAASGFKFNTYAMHWVRQAPGKGLEWVSAISITGGNTYYADSVKGRFTISRDNSKNTLYLQMNSLRAEDTAVYYCVTNMDNSRDYFPHYFHDMDVWGQGTLVTVSS
VL: not shown
B13: COVID19_P07_G08 (scFv, V domains shown)
VH: EVQLVESGGGLVQPGGSLRLSCAASGFTFSSYAMHWVRQAPGKGLEWVSAISGSGGSTYYADSVKGRFTISRDNSKNTLYLQMNSLRAEDTAVYYCVTNMDNSRDYFPHYFHDMDVWGQGTLVTVSS
VL: not shown
B14: COVID19_P07_E10 (scFv, V domains shown)
VH: EVQLVESGGGLVQPGGSLRLSCAASGFTFSSYGMHWVRQAPGKGLEWVAVISYDGSNKYYADSVKGRFTISRDNSKNTLYLQMNSLRAEDTAVYYCVTNMDNSRDYFPHYFHDMDVWGQGTLVTVSS
VL: DIVMTQSPLSLPVTPGEPASISCRSSQSLLHSNGYNDLDWYLQKPGQSPQLLIYGGSNGASGVPDRFSGSGSGTDFTLKISRVEAEDVGVYYCMQALQTPLTFGGGTKVEIKR
B15: COVID19_P08_B05 (scFv, V domains shown)
VH: EVQLVESGGGLVQPGGSLRLSCAASGFTFSSYGMHWVRQAPGKGLEWVSAISGSGGTTYYADSVKGRFTISRDNSKNTLYLQMNSLRAEDTAVYYCVTNMDNSRDYFPHYFHDMDVWGQGTLVTVSS
VL: not shown
B16: COVID19_P07_D05 (scFv, V domains shown)
VH: EVQLVESGGGLVQPGGSLRLSCAASGFTFRSYAMHWVRQAPGKGLEWVAVISHDASNKYYADSVKGRFTISRDNSKNTLYLQMNSLRAEDTAVYYCVTNMDNSRDYFPHYFHDMDVWGQGTLVTVSS
VL: not shown
B17: COVID19_P19_H03 (scFv, V domains shown)
VH: EVQLVESGGGLVQPGGSLRLSCAASGFTFSSYGMHWVRQAPGKGLEWVAVISYDGSNKYYADSVKGRFTISRDNSKNTLYLQMNSLRAEDTAVYYCVTNMDNSRDYFPHYFHDMDVWGQGTLVTVSS
VL: not shown
B18: COVID19_P07_H03 (scFv, V domains shown)
VH: EVQLVESGGGLVQPGGSLRLSCAASGFTFSSYAMHWVRQAPGKGLEWVSAISRSGDSAYYADSVKGRFTISRDNSKNTLYLQMNSLRAEDTAVYYCVTNMDNSRDYFPHYFHDMDVWGQGTLVTVSS
VL: not shown

Key:
[1] = target: MERS Receptor Binding Domain (RBD) protein (MERS coronavirus, UniProt K9N5Q8 367-606); experiment: SPR, scFv captured via anti-V5, RBD as analyte
[2] = target: SARS-CoV-1 Receptor Binding Domain (RBD) protein (SARS-CoV-1, UniProt P59594 306-527); experiment: SPR, scFv captured via anti-V5, RBD as analyte

Binder	binding result [1]	binding result [2]
B1	no binding (tested: up to 300 nM)	no binding (tested: up to 300 nM)
B2	no binding (tested: up to 300 nM)	no binding (tested: up to 300 nM)
B3	no binding (tested: up to 300 nM)	no binding (tested: up to 300 nM)
B4	no binding (tested: up to 300 nM)	no binding (tested: up to 300 nM)
B5	no binding (tested: up to 300 nM)	no binding (tested: up to 300 nM)
B6	no binding (tested: up to 300 nM)	no binding (tested: up to 300 nM)
B7	no binding (tested: up to 300 nM)	no binding (tested: up to 300 nM)
B8	no binding (tested: up to 300 nM)	no binding (tested: up to 300 nM)
B9	no binding (tested: up to 300 nM)	no binding (tested: up to 300 nM)
B10	no binding (tested: up to 300 nM)	no binding (tested: up to 300 nM)
B11	no binding (tested: up to 300 nM)	no binding (tested: up to 300 nM)
B12	no binding (tested: up to 300 nM)	no binding (tested: up to 300 nM)
B13	no binding (tested: up to 300 nM)	no binding (tested: up to 300 nM)
B14	no binding (tested: up to 300 nM)	no binding (tested: up to 300 nM)
B15	no binding (tested: up to 300 nM)	no binding (tested: up to 300 nM)
B16	no binding (tested: up to 300 nM)	no binding (tested: up to 300 nM)
B17	no binding (tested: up to 300 nM)	no binding (tested: up to 300 nM)
B18	no binding (tested: up to 300 nM)	no binding (tested: up to 300 nM)
